Key:
[1] = target: HLA-A2.1 molecules on T2 (TAP-, HLA-A2.1+) cells (human); assay: T2 cells, stabilisation assay, BB7.2 flow cytometry at 0, 2, 4, 6, 8 h
[2] = target: HLA-A2.1 molecules on T2 (TAP-, HLA-A2.1+) cells (human); assay: T2 cells, peptide binding by surface HLA-A2.1 (BB7.2) flow cytometry; ratio of concentrations reaching 20% of maximal binding

DC50 (half-life of peptide-HLA-A2.1 complexes) [1]: > 8 h | RA (relative affinity) (ratio to HIV 1 rt.476 reference peptide) [2]: 2.2
Substance: Tyrosinase 368-376-N epitopic peptide
